Assays:
[1] = Temperature denaturation monitored by CD at 222 nm; format: physicochemical
Experimental: The thermal denaturation was measured by monitoring the change in signal at 222 nm over a temperature range of 5-80° C., in a cuvette with a 2 mm path. Measurements were made in 0.5 degrees increments, with a response time of 2 s and a bandwidth of 1 nm, at a temperature slope of 50° C./h. The peptide concentration calculated from the absorbance at 280 nm was 15 μM (Pace et al., 1995).
(§1) A helical content of 34% was calculated as described above was. […] (FIG. 5).

HeLa cells = experiment: Toxicity experiments with HeLa cells; format: cell-based
[2] = target: T1, IL-4Rα (recombinant extracellular domain of the receptor α-chain [C182A,Q206C]-IL4-BP) (Homo sapiens, UniProt P24394, C207A/Q231C); experiment: Surface plasmon resonance binding assay (BIAcore 2000) with immobilized IL-4Rα; conditions: 25° C., HBS buffer, physiological salt concentration
T1 construct: A recombinant extracellular domain of the receptor α-chain [C182A,Q206C]-IL4-BP was immobilized
T1 sequence (P24394 26-232 C207A/Q231C): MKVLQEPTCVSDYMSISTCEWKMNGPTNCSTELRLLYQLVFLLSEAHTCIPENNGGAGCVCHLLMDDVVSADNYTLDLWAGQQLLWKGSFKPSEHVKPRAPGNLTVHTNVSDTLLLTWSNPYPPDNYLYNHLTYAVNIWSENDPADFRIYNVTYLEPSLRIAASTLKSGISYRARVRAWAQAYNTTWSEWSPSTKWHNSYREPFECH
Experimental: The binding affinities of the designed peptide mimetics were measured by surface plasmon resonance using a BIAcore 2000 (Pharmacia Biosensor AB). A recombinant extracellular domain of the receptor α-chain [C182A,Q206C]-IL4-BP was immobilized at a biosensor CM5 to a density of 1500 to 2000 pg/mm^2, as described by Shen et al. (Shen et al., 1996). Ligand binding was analyzed at 25° C. by perfusion with HBS buffer (10 mM Hepes, pH 7.4/150 mM NaCl/3.4 mM EDTA/0.005% surfactant P20) at a flow rate of 50 μl/min.

[3] = Far UV circular dichroism, helical content; format: physicochemical; conditions: far UV CD, 278 K, 15 μM peptide, from ellipticity at 222 nm
Experimental: The far UV CD spectra of the peptide was recorded, on a Jasco-710 instrument, at 278 K, in a cuvette with a 2 mm path. Measurements were made every 0.1 nm, with a response time of 2 s and a bandwidth of 1 nm, at a scan speed of 50 nm/min. The spectra shown in the text represent an average over 20 scans. The peptide concentration, calculated from the absorbance at 280 nm (Pace et al., 1995) was 15 μM. The helical percentage was calculated from the mean residue ellipticity at 222 nm, taking into account the peptide length (Chen et al., 1974), according to the following:
where n is the number of residues in the peptide and θ^obs222 nm is the ellipticity of the peptide at 222 nm. The CD experiments were carried out using the same buffer conditions as in the surface plasmon resonance assays.
as §1

cell proliferation = conditions: EPO, read-out: EC50 (concentration for half maximal response); cited from earlier work

Question: What does the source list for “solup10: 45-residue ROP-derived mini-protein containing the IL-4 binding site: MGTDIQRYERAQTLALLEKLNELDADKQADRLRKRLARNDWLFGS”?
Answer: reversibility of temperature-induced denaturation ([1]; 5-80° C., CD signal recovered upon cooling from 80 to 5° C.): reversible process; loss of helical content at assay temperature ([1]; 25° C.): lost half of its helical content; toxicity to mammalian cells in combination with IL-4 (HeLa cells; in combination with IL-4 at concentrations of up to 500 μM): non-toxic; concentration up to which non-toxic to mammalian cells (HeLa cells; solup10 alone): ≥ 500 µM; Kd [2]: 40 µM; helical content [3]: 34%

Question: Which EC50 (cell proliferation) does the source give for EPO: cytokine erythropoietin here?
Answer: Its EC50 is 0.02 nM.

— patent US20040030097A1, “Peptide mimetics” (priority 2000, published 2004)
